Measurements as given in publication PMC12614781, “The VelB IDD promotes selective heterodimer formation of velvet proteins for fungal development” (Life Science Alliance, 2025).

Molecular target: T1, VelB-GFP (A. nidulans Velvet-like B, full length, fused to GFP) (A. nidulans, UniProt C8VTS4 1-369)
T1 construct: Velvet-like B (VelB), A. nidulans, AN0363, full-length protein with the 99-aa intrinsically disordered domain (IDD) inside the velvet domain; Strains AGB1132 (wild-type background), AGB1190 (veA deletion background), AGB1136 (with vosA:ha), AGB1149 (with veA:ha); plasmid pME4687; Fusion printed as 67 kD; also called velB::sgfp; full-length VelB-GFP; source: A. nidulans, velB:gfp in locus under …
T1 sequence (looked up): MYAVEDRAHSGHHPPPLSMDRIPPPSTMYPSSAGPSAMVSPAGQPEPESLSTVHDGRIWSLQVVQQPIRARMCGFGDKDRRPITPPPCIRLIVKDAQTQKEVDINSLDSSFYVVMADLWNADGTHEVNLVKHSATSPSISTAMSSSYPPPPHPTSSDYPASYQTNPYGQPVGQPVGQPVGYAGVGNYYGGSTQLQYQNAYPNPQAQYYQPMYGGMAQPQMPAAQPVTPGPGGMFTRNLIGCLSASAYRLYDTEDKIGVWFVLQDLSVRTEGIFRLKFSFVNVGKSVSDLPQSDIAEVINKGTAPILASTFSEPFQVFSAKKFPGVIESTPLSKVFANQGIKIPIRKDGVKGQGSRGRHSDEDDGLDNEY
Experiment: co-IP; GFP and HA (anti-HA agarose) pull-downs from vegetative mycelium of A. nidulans strains expressing veA:HA or vosA:HA and velB:gfp or velB^ΔIDD:gfp under native promoters, intact veA; Western with GFP and HA antibodies
Details: partners not purified

B1: VosA-HA (A. nidulans VosA with HA tag) (natural protein, UniProt Q5BBX1 1-430, looked up)
chain: MSAANYPDPSLPRPSTSDDFELIVRQNPNRARVAGGKEKERKPVDPPPIVQIRVREEGTYLAQHYLQSPYFFMSCSLYDAQEDAPASIPPSTALTGTLVSSLHRLKDVDNTDGGFFVWGDLSIKVEGDFRLKFSLFEMRKTDVVFLKSIVSERFTVSPPKSFPGMAESTFLSRSFADQGVKLRIRKEPRTLIKRTAPRPEEYPQAAIPRSPSDRTAMQIPGSSYPAPPYQPTSRDYSYYAPVKRQRTSVDYGARGMYDADGRMRQMETYPQTATLYGQPGGYPTPMMGYPSGHGGVPDYAMSYGLPPSAQVPQMQDPAAQSRSSQQATMQSLGMVNPPGTPTPDSARAMMQQAYPRPQYSASTAVLPPLQQSRNYPQGTNGATRGYYEQSPQATPILPSQPLGTSEAERYGVPPGHTGYDHTGSANGTPR
notes: Viability of spores A (VosA), A. nidulans, AN1959; the vosA gene amplified with its 5' flanking region; Plasmid pME4693; strains AGB1136 (with velB:gfp) and AGB1137 (with velB^ΔIDD:gfp); source: A. nidulans, vosA:ha under its native promoter, in extract of vegetative mycelium
With B1 the “fold abundance of VosA in the GFP pull-down against the VelB^ΔIDD-GFP strain” value was 10 fold.
